# ± gives the standard error. Fewer inactive variants are shown than the library holds.
# B1: glmS ribozyme (parent)
# chain: AUAAAAGCGCCAGAACUACAGAAAUGUAGUUGACGAGGAGGAGGUUUAUCGAAUUUUCGGCGGAUGCCUCCAAA
# Variants of: B1
# Assay: self-cleavage kobs at 2500 uM GlcN6P; higher = faster cleavage; RNA array
# Conditions: with glucosamine-6-phosphate
# Outline: (§1)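 Barcoded ribozyme variants on sequenced MiSeq chips were transcribed in situ by E. coli RNA polymerase and followed at 37 °C through a hybridised Cy3 probe. Glucosamine-6-phosphate at 40 μM to 10 mM in HEPES/KCl/Mg(OAc)2 buffer was flowed in, and tiles were imaged over ~14 h. Signals were normalised to baseline and to non-cleaving reference variants, and per-tile medians were fit to one- or two-exponential decays to give kobs. Weighted Michaelis–Menten fits across concentrations gave kcat and KM.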
row,Variant,self-cleavage kobs at 2500 uM GlcN6P
1,U30A G37C U65G G66U,< 1e-05 s⁻¹
2,U31G A36C G38A G40A,< 1e-05 s⁻¹
3,U30A G32U C50A,< 1e-05 s⁻¹
4,G29C A48U G60C,< 1e-05 s⁻¹
5,U30A A33U A39G G44C U47G A52U,< 1e-05 s⁻¹
6,A15U A33C U45G G51U U55G,< 1e-05 s⁻¹
7,A15G G59A C70U,4.76e-05 ± 1.4e-05 s⁻¹
8,U30G A53U C58G,0.000116 ± 3.9e-05 s⁻¹
9,U31A U46C A53G C70A,4.56e-05 ± 1.7e-05 s⁻¹
10,C16A G63C C67G,< 1e-05 s⁻¹
11,G32U G40U U45A,4.53e-05 ± 1.3e-05 s⁻¹
12,A15U U31A C70A,6.54e-05 ± 2.7e-05 s⁻¹
13,A15G G59C G60U,< 1e-05 s⁻¹
14,G29A G35C C71A,< 1e-05 s⁻¹
15,U31C C34G A39U A42G U47C C70A,< 1e-05 s⁻¹
16,U30C G41C U45G,< 1e-05 s⁻¹
17,C16G C50A C70A,8.7e-05 ± 2.4e-05 s⁻¹
18,G32C G37U G40U U55G,< 1e-05 s⁻¹
19,G29C U31C C70A,7.34e-05 ± 3.4e-05 s⁻¹
20,C16U C34A G41A C68U C71A,< 1e-05 s⁻¹
21,A15U C50G C70A,0.000427 ± 0.00013 s⁻¹
22,A33G A53C C58A,< 1e-05 s⁻¹

row,Variant,self-cleavage kobs at 2500 uM GlcN6P
1,U30C A53U G66U U69G,0.000128 ± 2.7e-05 s⁻¹
2,G29A A48U U69A,< 1e-05 s⁻¹
3,U31G G41A U54C,6.89e-05 ± 2.6e-05 s⁻¹
4,U31G G37U U56G,< 1e-05 s⁻¹
5,C16U G43A U49A,< 1e-05 s⁻¹
6,G32C G41C G43C C61A,< 1e-05 s⁻¹
7,A14U U31A U69A,0.000236 ± 5.6e-05 s⁻¹
8,G29C A39C A48U U49C U57A G60A C61A C67A,< 1e-05 s⁻¹
9,C16U C34A G59C U69A,< 1e-05 s⁻¹
10,A15C U31G A53C,0.000196 ± 3.5e-05 s⁻¹
11,A33U U55G C58G,< 1e-05 s⁻¹
12,A33U G35C G62A,< 1e-05 s⁻¹
13,A33U G43A U57C,< 1e-05 s⁻¹
14,G21A A48C,0.000242 ± 7.9e-05 s⁻¹
15,A15G A39U A64C,0.000106 ± 2.7e-05 s⁻¹
16,C16U U46G U55C,0.00261 ± 0.00068 s⁻¹
17,A33U U55C G60C,< 1e-05 s⁻¹
18,G32U A39U G60U,< 1e-05 s⁻¹
19,A33C U54C C67G C68G C70U,< 1e-05 s⁻¹
20,A15U G35U A48C A64U,< 1e-05 s⁻¹
21,G32A G60A U65C,< 1e-05 s⁻¹
22,U30C U47A U57C,< 1e-05 s⁻¹

row,Variant,self-cleavage kobs at 2500 uM GlcN6P
1,G32A U45C C71U,7.08e-05 ± 2.9e-05 s⁻¹
2,A14U A33C U55G,7.4e-05 ± 2.1e-05 s⁻¹
3,U30A G43U,< 1e-05 s⁻¹
4,A15G G32C A53G,4.37e-05 ± 1.3e-05 s⁻¹
5,U31G G41U G62U G66U,< 1e-05 s⁻¹
6,U30G U55C U65A C71U,8.23e-05 ± 1.7e-05 s⁻¹
7,A14U U46C U47G,8.01e-05 ± 2.2e-05 s⁻¹
8,A33C G41C U69G,< 1e-05 s⁻¹
9,C16G G44U C70A,< 1e-05 s⁻¹
10,C16A G38A U55A,< 1e-05 s⁻¹
11,A33G G37A G62C,< 1e-05 s⁻¹
12,G29A A33G G38A G60U,< 1e-05 s⁻¹
13,A15C G37A U65G,8.59e-05 ± 2.6e-05 s⁻¹
14,A15C G44A C58G G62U,< 1e-05 s⁻¹
15,G32C G37C U55C U65G,< 1e-05 s⁻¹
16,A15C U45A A64G,0.00477 ± 0.002 s⁻¹
17,G21U G29C A42G,0.000483 ± 0.00016 s⁻¹
18,A15C U69A,4.7e-05 ± 1.5e-05 s⁻¹
19,A14G G38A G40A,< 1e-05 s⁻¹
20,G29C C67A C68G,7.78e-05 ± 2.8e-05 s⁻¹
21,A15U U30C U31C G40U A64U G66A,< 1e-05 s⁻¹
22,C16A G41A A42U,< 1e-05 s⁻¹

row,Variant,self-cleavage kobs at 2500 uM GlcN6P
1,G29C A36U A52G,< 1e-05 s⁻¹
2,A15U A52U C67G,0.000122 ± 3.6e-05 s⁻¹
3,G29A U65C,6.71e-05 ± 1.9e-05 s⁻¹
4,A15U G51C C71U,< 1e-05 s⁻¹
5,U30G G43C A48C,< 1e-05 s⁻¹
6,A33G U45G U47G,< 1e-05 s⁻¹
7,C16U U46G U47C C70U,0.00139 ± 0.00038 s⁻¹
8,C16G G37A A48G G60A U65G C67U,< 1e-05 s⁻¹
9,G29U A36U C70G,0.000444 ± 0.0001 s⁻¹
10,C16G G29A G37A U49G C50U,< 1e-05 s⁻¹
11,A14U G29U C67U,9.48e-05 ± 2.4e-05 s⁻¹
12,U31G G38U A42U,< 1e-05 s⁻¹
13,G29U G41U C67G,< 1e-05 s⁻¹
14,U31C G35U A48U U49G U57C,< 1e-05 s⁻¹
15,A33G U47C U54C G62A,< 1e-05 s⁻¹
16,U30A G63A U69C,< 1e-05 s⁻¹
17,A15U C16U A33U A42U U57G G62C A64U,< 1e-05 s⁻¹
18,A33U G35C C67G,< 1e-05 s⁻¹
19,C16G A36U A48G C58A,< 1e-05 s⁻¹

# Variants of: B1
# Assay: self-cleavage kobs at 10000 uM GlcN6P; higher = faster cleavage; RNA array
# Conditions: with glucosamine-6-phosphate
# Outline: as §1
row,Variant,self-cleavage kobs at 10000 uM GlcN6P
1,G29A G35C C71A,< 1e-05 s⁻¹
2,U30A G43U,< 1e-05 s⁻¹
3,G29A U65C,8.99e-05 ± 3.1e-05 s⁻¹

# Reference: the supplement of paper PMC7125110
